Tests used:
[1] = molecular target: T1, human IL4 (human, UniProt P05112 25-153, biotinylated in the SPR and competition assays (sites not given)); test: SPR ProteOn, biotin-IL4 on neutravidin chip, 1:1 fit
T1 construct: Peprotech #200-04, mature protein produced in E. coli; also called hIL4; Interleukin 4
T1 sequence: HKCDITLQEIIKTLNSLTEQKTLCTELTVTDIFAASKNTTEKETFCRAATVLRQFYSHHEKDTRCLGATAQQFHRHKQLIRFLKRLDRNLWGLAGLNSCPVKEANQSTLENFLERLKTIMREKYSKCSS
Method: Purified binders selected as “hits” were ranked by their affinity on a ProteOn XPR-36 instrument (Bio-Rad). ProteOn is an optical biosensor instrument that measures protein-protein interactions in real time, based on Surface Plasmon Resonance technology similar to Biacore (GE). A rapid experimental protocol was performed as follows: On a GLC sensor chip (Bio-Rad), Neutravidin (Thermo Scientific) was covalently immobilized to a density of >5000 RU using amine coupling chemistry as described by the manufacturer. On one flow cell, biotinylated IL4 (Peprotech) was immobilized to a level of 250 RU, while another flow cell was used as reference, with neutravidin immobilized only. […] The retrieved values were used to rank the AR proteins by their affinity.

[2] = molecular target: T1, human IL4; test: Luminex competition, 67 pM biotin-IL4 binding to IL4RA-Fc beads
Method: For biotinylation of IL4, recombinant human IL4 (Peprotech) was biotinylated at a 4:1 ratio using EZ-Link NHS-LC-Biotin (Pierce, #21336) for 2 hours at RT. The protein was dialyzed in PBS overnight to remove excess biotinylation reagent. Competition binding for cynomologous IL4 (SEQ ID NO: 5) was performed using the isolated protein biotinylated in the same manner.
AR protein inhibition of IL4 binding to IL4 RA was assessed using IL4 RA-Fc (R&D Systems), comprising the Gly24-His232 which represents the ECD (SEQ ID NO: 5) fused to a human IgGl-Fc and therefor a disulfide linked homodimer. The protein was conjugated to carboxylated Luminex microspheres according to the manufacturer's protocol. For neutralization experiments, 5000 IL4RA-Fc conjugated beads in 50 μl were added to each well of a 96-well filter plate (Millipore). Biotinylated human IL4 was mixed with an appropriate dilution of AR protein in Luminex Assay Buffer (PBS, 1% BSA, pH 7.4) to give a final concentration of 67 pM IL4. The plate was incubated for 1 hour at RT in the dark on a plate shaker, set to shake vigorously to avoid bead aggregation. The plate was washed twice with 150 μl of wash buffer (PBS, 0.1% BSA, pH 7.4, 0.05% Tween-20) using a vacuum manifold followed by the addition of 50 μl of Streptavidin PE at 25 μg/ml and incubated at RT for 20 minutes. The plates were washed again and 150 μl of sheath fluid was added and the plate was placed on the shaker for 5 minute. Plates were read using a Luminex® 100 system; data were plotted as a function of AR protein concentration. IC₅₀ values were determined by fitting the data to the equation for sigmoidal dose response using PRISM software (GraphPAD PRISM) (Table 6).

[3] = molecular target: T1, human IL4; test: cell-based or functional assay
[4] = molecular target: T1, human IL4; test: cell-based or functional assay; remark: listed apart in the source
[5] = molecular target: T1, human IL4; test: cell-based or functional assay; remark: listed apart in the source
[6] = molecular target: T1, human IL4; test: binding to recombinant IL4; kinetic method not restated
[7] = molecular target: T2, human IL13 R130Q (human, UniProt P35225 35-146, biotinylated (sites not given)); test: Luminex competition, 80 pM biotin-IL13 R130Q binding to IL13Ra2-Fc beads
T2 construct: Peprotech; also called IL13R13Q; R111Q
Method: Binding protein inhibition of IL13 binding to Rα2 was assessed using IL13Rα2-Fc (R&D Systems) conjugated to carboxylated Luminex microspheres according to the manufacturer's protocol. For biotinylation of IL13, recombinant human IL13 R130Q (Peprotech) was biotinylated at a 4:1 ratio using EZ-Link NHS-LC-Biotin (Pierce, #21336) for 2 hours at RT. The protein was dialyzed in PBS overnight to remove excess biotinylation reagent. For neutralization experiments, 5000 IL13 Rα2-Fc conjugated beads in 50 μl were added to each well of a 96-well filter plate (Millipore). 50 μl of biotinylated human IL13 at 1 ng/ml (80 pM) was mixed with an appropriate dilution of binding protein in Luminex Assay Buffer (PBS, 1% BSA, pH 7.4). The plate was incubated for 1 hour at RT in the dark on a plate shaker, set to shake vigorously to avoid bead aggregation. The plate was washed 3 times with 150 μl of wash buffer (PBS, 1% BSA, pH 7.4, 0.05% Tween-20) using a vacuum manifold followed by the addition of 50 μl of Streptavidin PE at 25 μg/ml and incubated at RT for 20 minutes. The plates were washed again and 100 μl of sheath fluid was added and the plate was placed on the shaker for 1 minute. Plates were read using a Luminex® 100 system; data were plotted as a function of binding protein concentration. IC₅₀ values were determined by fitting the data to the equation for sigmoidal dose response using PRIZM software (GraphPAD PRIZM).

[8] = molecular target: T3, human IL13 (human, UniProt P35225 35-146, biotinylated in the SPR assays (sites not given)); test: cell-based or functional assay
[9] = molecular target: cyno IL13 (cynomolgus monkey, UniProt Q0PW92 21-132); test: cell-based or functional assay
[10] = molecular target: T3, human IL13; test: SPR BIAcore, biotin-IL13 on SA chip, global fit
Method: Recombinant human IL13 (Peprotech) was minimally biotinylated on ice using sulfo-NHS-LCLC-Biotin and desalted into the experimental running buffer containing 10 mM HEPES, 150 mM NaCl, pH 7.4, 0.01% Tween-20, and 0.1 mg/mL BSA. Biotinylated IL13 was captured at three different surface densities (from about 150, 50, and 25 RU) onto three different BIAcore SA (streptavidin) sensor chips. Each binding protein sample was tested at 40 nM as the highest concentration in a 3-fold dilution series over the three different density IL13 surfaces. The dissociation phase for the highest concentration of the binding protein sample was monitored for one hour. The response data from each of the different density surfaces was globally fitted in order to extract estimates of the kinetic and affinity constants which are provided in Table 7 below.

[11] = molecular target: T3, human IL13; test: SPR ProteOn, biotin-hIL13 on streptavidin, 1:1 global fit
Method: Complete kinetic data describing binding of various engineered binding protein molecules to human IL13 was measured using a method similar to that described above for the single point affinity analysis. Briefly, streptavidin (Pierce) was immobilized to similar levels (˜1800 RUs) on all six channels of a ProteOn GLC chip via amine coupling (pH 5.0). Biotinylated hIL13 was captured at different surface densities (600˜100 RUs) on different channels. Protein binding was tested starting at 40 nM diluted in a 3-fold concentration series over the different density IL13 surfaces; a buffer sample was injected to monitor the baseline stability. Dissociation phases for all concentrations of each binding protein sample were monitored for one hour at a flow rate of 100 μl/min. Response data for all concentration series from the different density surfaces were globally fit to a 1:1 simple langmuir binding model to extract values of the kinetic (kₒₙ, koff) and affinity (KD) constants provided in Table 16.

[12] = molecular target: T3, human IL13; test: cell-based or functional assay; remark: listed apart in the source
[13] = molecular target: T4, murine IL13 (mouse, UniProt P20109 21-131, limits assumed); test: cell-based or functional assay
T4 sequence (looked up): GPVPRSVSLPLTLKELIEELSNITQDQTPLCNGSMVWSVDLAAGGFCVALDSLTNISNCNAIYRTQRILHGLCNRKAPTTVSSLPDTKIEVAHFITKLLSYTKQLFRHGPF

[14] = molecular target: T5, murine IL4 (mouse, UniProt P07750 21-140); test: cell-based or functional assay
T5 sequence (looked up): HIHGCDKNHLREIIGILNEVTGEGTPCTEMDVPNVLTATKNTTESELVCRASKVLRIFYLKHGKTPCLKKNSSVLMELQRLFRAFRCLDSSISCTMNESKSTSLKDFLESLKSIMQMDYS

[15] = molecular target: T5, murine IL4; test: affinity for mIL4, method and numbers not given

T3 sequence (P35225 other isoform, or with tags, fused parts or gaps limits assumed): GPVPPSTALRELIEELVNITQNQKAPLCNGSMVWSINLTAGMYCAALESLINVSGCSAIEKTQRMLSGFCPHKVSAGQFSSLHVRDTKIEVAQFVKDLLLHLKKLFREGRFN
T2 sequence (P35225 35-146 limits assumed, stated change not applied): as the sequence (P35225 other isoform, or with tags, fused parts or gaps limits assumed) above, with R110Q counted along it
Sequence of cyno IL13 (Q0PW92 entry or part of it): as the sequence (P35225 other isoform, or with tags, fused parts or gaps limits assumed) above, with G1S, R10K, M42V, S67N, H83R, L100V, R110Q counted along it

B1: C06_28E5 (designed binder)
chain: DLGKKLLEAARAGQDDEVRILMANGADVNAADDSGITPLHLAAEDGHLEIVEVLLKYGADVNAQDNLGDTPLHLAAWTGHLEIVEVLLKNGADVNAYDISGITPLHLAAFYGHLEIVEVLLKHGADVNAQDKFGKTAFDISIDNGNEDLAEILQKLN
notes: ankyrin repeat protein; His-tagged, IMAC-purified; also called benchmark AR protein
Kd [1]: 50 pM
koff [1]: 4.61e-05 s⁻¹
kon [1]: 922000 M⁻¹ s⁻¹
IC50 [2]: 10.2 pM
inhibition of STAT6 (HEK-STAT6 cells), IC50 [3]: 3 pM
A549 TARC Inhibition IC50 [4]: 174 pM
HEK Stat6 Inhibition IC50 [4]: 1.4 pM
Type 1 Complex inhibition IC50 [4]: 1.5 pM

B2: C06_28E5v1 (designed binder)
chain: DLGKKLLEAARAGQDDEVRILMANGADVNAADDSGITPLHLAAEDGHLEIVEVLLKAGADVNAQDNLGDTPLHLAAWTGHLEIVEVLLKAGADVNAYDISGITPLHLAAFYGHLEIVEVLLKHGADVNAQDKFGKTAFDISIDNGNEDLAEILQKLN
IC50 STAT6 [5]: 3.1 pM
Kd [6]: 8.38 pM

B3: C06_53G6v1 (designed binder)
chain: DLGKKLLEAARAGQDDEVRILMANGADVNATDDWGDTLLHLAATDGHLEIVEVLLKAGADVNANDAIGDTPLHLAALYGHLEIVEVLLKYGADVNATDLHGFTPLHLAAFWGHLEIVEVLLKHGADVNAQDKFGKTAFDISIDNGNEDLAEILQKLN
IC50 STAT6 [5]: 1.4 pM
Kd [6]: 1.8 pM

B4: C06_44C12v2 (designed binder)
chain: DLGKKLLEAASAGQDDEVHILMANGADVNALDDSGYTPLHLAAEDGHLEIVEVLLKHGADVNAADRLGDTPLHLAAFVGHLEIVEVLLKAGADVNAVDLAGVTPLHVAAFYGHLEIVEVLLKAGADVNAQDKFGKTAFDISIDNGNEDLAEILQKLN
IC50 STAT6 [5]: 6.9 pM
Kd [6]: 1.6 pM

B5: 7G11 (designed binder)
chain: DLGKKLLEAARAGQDDEVRILMANGADVNATDEFDSTPLHLAARHGHLEIVEVLLKYGADVNAADFIGDTPLHLAAYRGHLEIVEVLLKCGVDVNADDHGDTPLHLAASMGHLEIVEVLLKNGADVNAQDKFGKTAFDISIDNGNEDLAEILQKLN
notes: ankyrin repeat protein
IC50 [7]: 3.4 pM
STAT6 Phospho IC50 [8]: 2.5 pM
TARC expression IC50 [8]: 19.6 pM
Cyno IL13 STAT6 IC50 [9]: 98 pM
Kd [10]: 32.8 pM
koff [10]: 5.3e-05 s⁻¹
kon [10]: 1.62e+06 M⁻¹ s⁻¹
Kd [11]: 16.8 pM
HEK STAT6 IC50 [12]: 2.5 pM

B6: IL13 binding protein 6G9 (designed binder)
chain: DLGKKLLEAARAGQDDEVRILMANGADVNARDSYGSTPLHLAAREGHLEIVEVLLKYGADVNAKDMIGDTPLHLAAYRGHLEIVEVLLKNGADVNASDITGETPLHLAAQIGHLEIVEVLLKYGADVNAQDKFGKTAFDISIDNGNEDLAEILQKLN
IC50 [7]: 31 pM
STAT6 Phospho IC50 [8]: 17.4 pM
TARC expression IC50 [8]: 64 pM
Cyno IL13 STAT6 IC50 [9]: 96.4 pM
Kd [10]: 57.7 pM
koff [10]: 5.74e-05 s⁻¹
kon [10]: 995000 M⁻¹ s⁻¹
Kd [11]: 24.9 pM
HEK STAT6 IC50 [12]: 17.4 pM

B7: 11G11-21H2 (designed binder)
chain: MRGSHHHHHHGSDLGKKLMEAARAGQDDEVRILMANGADVNAKDLFGITPLHLAAVYGHLEIVEVLLKHGADVNATDNWGSTPLHLAAQFGHLEIVEVLLKYGADVNAQDKFGKTAFDISIDNGNEDLAEILQKLGGGGSGGGGSGGGGSGGGGSRSDLGEKLLEAARAGQDDEVRILMANGADVNAYDDDGMTPLHLAAKSGHLEIVEVLLKHGADVNAMDITGSAPLHLAADLGHLEIVEVLLKHGADVNAIDYLGATPLHLAATYGHPEIVEVLLKYGADVNAQDKFGKTAFDISIDNGNEDLAEILQKLN
IC50 (read off the curve); IL13 STAT6 activation assay, aerosolized sample (triangles) [13]: ~2000 pM
IC50 (read off the curve); IL13 STAT6 activation assay, pre-nebulization sample (squares) [13]: ~1000 pM
IC50 (read off the curve); IL13 STAT6 activation assay, retentate sample (diamonds) [13]: ~1000 pM
IC50 (read off the curve); IL4 dependent HT2 proliferation assay, retentate sample (diamonds, solid line) [14]: ~40 pM

B8: C06-21H2 (designed binder)
chain: DLGEKLLEAARAGQDDEVRILMANGADVNAYDDDGMTPLHLAAKSGHLEIVEVLLKHGADVNAMDITGSAPLHLAADLGHLEIVEVLLKHGADVNAIDYLGATPLHLAATYGHPEIVEVLLKYGADVNAQDKFGKTAFDISIDNGNEDLAEILQKLN
binding result [15]: binds

From US20120277143A1 (Janssen / Centocor, published 2012)
